Source: publication PMC11850223

How the values were obtained:
Experiment in all cases: single-molecule FRET
[1] = target: T1, Hera/Hera_1-419 heterodimer, dye-labelled in trans (Thermus thermophilus, UniProt O07897;O07897 1-510;1-419, E115C;E227C)
T1 sequence 1: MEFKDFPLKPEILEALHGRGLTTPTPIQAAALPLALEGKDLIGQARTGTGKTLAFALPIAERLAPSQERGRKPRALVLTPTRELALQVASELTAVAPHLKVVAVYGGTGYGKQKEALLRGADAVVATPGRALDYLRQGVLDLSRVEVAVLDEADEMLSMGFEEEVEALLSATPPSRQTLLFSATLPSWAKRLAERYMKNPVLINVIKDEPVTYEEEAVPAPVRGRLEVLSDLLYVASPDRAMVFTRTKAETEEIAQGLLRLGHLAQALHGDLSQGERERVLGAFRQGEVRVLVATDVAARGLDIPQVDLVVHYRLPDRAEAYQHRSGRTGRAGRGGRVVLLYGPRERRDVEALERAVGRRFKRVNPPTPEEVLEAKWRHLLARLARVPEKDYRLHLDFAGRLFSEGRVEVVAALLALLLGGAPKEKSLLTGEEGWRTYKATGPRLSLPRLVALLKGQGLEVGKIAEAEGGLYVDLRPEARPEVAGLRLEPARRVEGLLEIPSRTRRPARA
T1 sequence 2: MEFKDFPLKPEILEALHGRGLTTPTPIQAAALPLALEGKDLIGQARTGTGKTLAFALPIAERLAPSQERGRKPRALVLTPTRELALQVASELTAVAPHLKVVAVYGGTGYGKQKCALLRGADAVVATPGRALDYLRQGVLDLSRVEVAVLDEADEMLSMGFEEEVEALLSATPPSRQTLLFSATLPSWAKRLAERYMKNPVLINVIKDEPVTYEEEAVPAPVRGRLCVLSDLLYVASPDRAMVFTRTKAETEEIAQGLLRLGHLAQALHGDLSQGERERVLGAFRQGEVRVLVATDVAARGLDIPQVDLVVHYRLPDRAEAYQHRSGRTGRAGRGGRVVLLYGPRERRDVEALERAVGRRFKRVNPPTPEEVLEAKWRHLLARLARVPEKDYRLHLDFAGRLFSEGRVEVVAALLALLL

[2] = target: T2, Hera/Hera_1-419 heterodimer, dye-labelled in cis (Thermus thermophilus, UniProt O07897;O07897 1-510;1-419, E115C;E227C)
T2 sequence 1: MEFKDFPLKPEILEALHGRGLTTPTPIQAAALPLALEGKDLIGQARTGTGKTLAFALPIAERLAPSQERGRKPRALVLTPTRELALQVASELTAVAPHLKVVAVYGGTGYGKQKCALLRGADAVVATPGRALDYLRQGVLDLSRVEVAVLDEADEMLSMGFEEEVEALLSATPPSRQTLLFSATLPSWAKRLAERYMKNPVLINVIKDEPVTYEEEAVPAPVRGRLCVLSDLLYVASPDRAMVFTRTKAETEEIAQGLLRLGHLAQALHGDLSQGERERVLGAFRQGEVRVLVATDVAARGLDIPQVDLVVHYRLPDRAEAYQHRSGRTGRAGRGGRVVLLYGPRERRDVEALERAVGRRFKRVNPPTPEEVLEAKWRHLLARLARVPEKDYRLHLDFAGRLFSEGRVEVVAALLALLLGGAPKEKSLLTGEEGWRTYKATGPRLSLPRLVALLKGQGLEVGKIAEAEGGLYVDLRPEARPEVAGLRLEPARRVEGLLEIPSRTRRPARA
T2 sequence 2: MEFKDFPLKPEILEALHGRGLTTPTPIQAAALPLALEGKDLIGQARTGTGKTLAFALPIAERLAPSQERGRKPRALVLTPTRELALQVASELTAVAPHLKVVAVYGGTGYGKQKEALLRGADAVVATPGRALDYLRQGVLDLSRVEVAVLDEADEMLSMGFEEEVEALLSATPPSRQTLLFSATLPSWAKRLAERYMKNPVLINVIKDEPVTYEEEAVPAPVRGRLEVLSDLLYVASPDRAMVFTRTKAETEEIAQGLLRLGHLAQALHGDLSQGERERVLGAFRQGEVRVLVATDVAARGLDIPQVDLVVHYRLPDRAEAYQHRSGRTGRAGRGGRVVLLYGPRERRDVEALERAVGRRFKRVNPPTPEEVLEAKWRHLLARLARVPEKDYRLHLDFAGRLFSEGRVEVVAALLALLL

[3] = target: T3, Hera_1-419_E115C_E227C/Hera_1-419 heterodimer (Thermus thermophilus, UniProt O07897;O07897 1-419;1-419, E115C;E227C)
T3 sequence 1: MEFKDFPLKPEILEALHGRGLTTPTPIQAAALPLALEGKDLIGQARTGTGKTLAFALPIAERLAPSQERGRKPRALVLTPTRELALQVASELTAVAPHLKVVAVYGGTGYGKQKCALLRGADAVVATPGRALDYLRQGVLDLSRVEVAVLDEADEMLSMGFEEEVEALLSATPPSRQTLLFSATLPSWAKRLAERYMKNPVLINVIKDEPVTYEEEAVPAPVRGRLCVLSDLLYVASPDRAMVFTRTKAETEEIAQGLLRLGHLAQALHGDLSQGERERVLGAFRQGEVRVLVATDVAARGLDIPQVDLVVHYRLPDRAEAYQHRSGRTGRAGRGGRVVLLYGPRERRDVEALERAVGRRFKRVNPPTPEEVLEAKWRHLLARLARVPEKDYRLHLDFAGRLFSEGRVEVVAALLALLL
T3 sequence 2: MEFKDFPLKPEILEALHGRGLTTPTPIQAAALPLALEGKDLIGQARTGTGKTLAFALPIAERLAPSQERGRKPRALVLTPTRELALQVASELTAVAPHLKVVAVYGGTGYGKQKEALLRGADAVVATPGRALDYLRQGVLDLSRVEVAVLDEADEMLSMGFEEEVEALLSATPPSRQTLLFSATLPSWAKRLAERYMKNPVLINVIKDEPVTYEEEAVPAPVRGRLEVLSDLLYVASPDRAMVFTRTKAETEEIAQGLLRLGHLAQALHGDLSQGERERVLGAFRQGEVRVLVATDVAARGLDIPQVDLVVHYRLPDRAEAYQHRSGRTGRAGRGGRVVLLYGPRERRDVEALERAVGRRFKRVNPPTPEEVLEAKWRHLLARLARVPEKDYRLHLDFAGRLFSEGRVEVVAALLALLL

Hera_E115C_E227C = target: T4, Hera_E115C_E227C (Thermus thermophilus, UniProt O07897 1-510, E115C;E227C)
T4 sequence: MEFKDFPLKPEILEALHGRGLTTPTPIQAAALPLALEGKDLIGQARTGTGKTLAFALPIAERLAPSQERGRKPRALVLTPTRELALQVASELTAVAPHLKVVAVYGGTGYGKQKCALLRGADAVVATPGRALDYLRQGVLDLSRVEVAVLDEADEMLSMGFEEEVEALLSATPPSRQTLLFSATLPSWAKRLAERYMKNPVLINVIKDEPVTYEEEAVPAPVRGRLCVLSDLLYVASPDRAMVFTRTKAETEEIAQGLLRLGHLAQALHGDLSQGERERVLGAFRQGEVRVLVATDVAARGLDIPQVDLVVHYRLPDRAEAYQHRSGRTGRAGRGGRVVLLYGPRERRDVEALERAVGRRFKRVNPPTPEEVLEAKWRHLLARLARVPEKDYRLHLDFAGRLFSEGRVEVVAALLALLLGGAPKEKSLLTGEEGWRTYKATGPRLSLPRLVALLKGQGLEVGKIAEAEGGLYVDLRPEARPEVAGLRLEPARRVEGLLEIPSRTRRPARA

Measured: binding result

GCAGGUCCCAAGGGUUGGGCUGUUCGCCCAUU (structured_RNA) [32mer (smFRET)]
binds: all assays above
